Results taken from article PMC6023938, “Global pairwise RNA interaction landscapes reveal core features of protein recognition”.

Molecular target: T1, TUT7 RNA-binding region (Homo sapiens, UniProt Q5VYS8 1362-1452)
T1 sequence: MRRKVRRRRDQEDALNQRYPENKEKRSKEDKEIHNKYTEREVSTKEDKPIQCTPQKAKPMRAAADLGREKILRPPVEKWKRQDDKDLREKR
Experiment: fluorescence polarization; FP: 45 mM Tris-HCl pH 8.0, 90 mM NaCl, 0.2% Tween-20, 22 C, 60 min, 30 ul
Details: protein: recombinant; tags: GST fusion (expressed in BL21 codon plus); label: 5' Cy5

B1: top scoring Hamiltonian sequence for TUT7 (ssRNA)
RNA: GCAGUCUUAACGCUGCCUUA
B1: binds.
